B1: D175 (antibody, V domains shown)
VH: QLQLQESGPGLVKPSETLSLTCTVSGGSISSSSYYWGWIRQPPGKGLEWIGSIYYSGSTYYNPSLKSRVTISVDTSKNQFSLKLSSVTAADTAVYYCARGATYYYDSSGYYTPAPFDYWGQGTLVTVSS
VL: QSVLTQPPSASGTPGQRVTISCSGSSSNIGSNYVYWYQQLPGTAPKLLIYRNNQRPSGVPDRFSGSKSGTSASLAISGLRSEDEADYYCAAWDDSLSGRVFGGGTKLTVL
B2: D011 (antibody, V domains shown)
VH: EVQLVESGGGLVQPGRSLRLSCAASGFTFDDYAMHWVRQAPGKGLEWVSGISWNSGSIGYADSVKGRFTISRDNAKNSLYLQMNSLRAEDTALYYCAKGDSSGYYFAYEDYGMDVWGQGTTVTVSS
VL: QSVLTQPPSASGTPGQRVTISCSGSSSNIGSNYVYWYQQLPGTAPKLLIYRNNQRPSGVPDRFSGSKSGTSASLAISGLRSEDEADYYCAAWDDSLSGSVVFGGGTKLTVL
B3: C2692 (antibody, V domains shown)
VH: EVQLVESGGGLVQPGRSLRLSCAASGFTFDDYAMHWVRQAPGKGLEWVSGISWNSGSIGYADSVKGRFTISRDNAKNSLYLQMNSLRAEDTALYYCAKDIDTMVQGGEFYFDYWGQGTLVTVSS
VL: QSALTQPASVSGSPGQSITISCTGTSSDVGGYNYVSWYQQHPGKAPKLMIYDVSNRPSGVSNRFSGSKSGNTASLTISGLQAEDEADYYCSSYTSSSTVVFGGGTKLTVL
B4: D187 (antibody, V domains shown)
VH: QVQLVQSGAEVKKPGSSVKVSCKASGGTFSSYAISWVRQAPGQGLEWMGGIIPIFGTANYAQKFQGRVTITADESTSTAYMELSSLRSEDTAVYYCATRGWSGYQTMQKNAFDIWGQGTMVTVSS
VL: not shown
B5: D133 (antibody, V domains shown)
VH: EVQLVESGGGLVQPGGSLRLSCAASGFTFSSYDMHWVRQATGKGLEWVSAIGTAGDTYYPGSVKGRFTISRENAKNSLYLQMNSLRAGDTAVYYCARGTTVSQQYPSGIPYYYGMDVWGQGTTVTVSS
VL: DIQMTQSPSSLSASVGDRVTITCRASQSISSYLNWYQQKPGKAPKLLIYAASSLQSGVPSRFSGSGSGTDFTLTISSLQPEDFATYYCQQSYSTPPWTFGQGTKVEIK
B6: D181 (antibody, V domains shown)
VH: QVQLQESGPGLVKPSQTLSLTCTVSGGSISSGGYYWSWIRQHPGKGLEWIGYIYYSGSTYYNPSLKSRVTISVDTSKNQFSLKLSSVTAADTAVYYCARDRMEIYYDSSGYHPGPFDYWGQGTLVTVSS
VL: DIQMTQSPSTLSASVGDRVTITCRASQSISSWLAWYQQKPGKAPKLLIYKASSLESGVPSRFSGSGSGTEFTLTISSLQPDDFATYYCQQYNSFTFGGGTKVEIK
B7: D185 (antibody, V domains shown)
VH: QVQLVQSGAEVKKPGSSVKVSCKASGGTFSSYAISWVRQAPGQGLEWMGGIIPIFGTANYAQKFQGRVTITADKSTSTAYMELSSLRSEDTAVYYCARAQQQLVQHGGYGMDVWGQGTTVTVSS
VL: QSVLTQPPSVSGAPGQRVTISCTGSSSNIGAGYDVHWYQQLPGTAPKLLIYGNSNRPSGVPDRFSGSKSGTSASLAITGLQAEDEADYYCQSYDSSLSAVVFGGGTKLTVL
B8: D180 (antibody, V domains shown)
VH: EVQLVESGGGLVQPGGTLRLSCEASGFAFSTFWMTWVRQAPGKGLEWVANIKQDGSEKYYVDSVKGRFTISRDNAKNSLYLQMNSLRAEDTAVYYCASRSIVVAGTDYWGQGTLVTVSS
VL: not shown
B9: D087 (antibody, V domains shown)
VH: QVQLVQSGAEVKKPGASVKVSCKASGYTFTNYDFNWVRQAPGQGLEWMGWMNPNSGNTGYAQKFQGRVTITRNTSINTAYMELSSLRSEDTAVYYCARAPDCSSFSCSYYFDYWGQGTLVTVSS
VL: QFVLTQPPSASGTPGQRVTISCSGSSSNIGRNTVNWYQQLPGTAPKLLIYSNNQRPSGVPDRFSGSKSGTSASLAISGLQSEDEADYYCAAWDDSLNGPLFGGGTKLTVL
B10: D116 (antibody, V domains shown)
VH: EVQLVESGGGLVLPGGSLRLSCVASGFTFSSYWMTWVRQAPGKGLEWVANIQRDGREKYYVDSLKGRFSISRDNDKNSLYLQMNNLRAEDTGVYYCARAQTCTTCSSPNWFDPWGQGTLVTVSS
VL: QSVLTQPASVSGSPGQSITISCTGTSSDVGSYNLVSWYQQHPGKAPKLIIYEGSKRPSGVSNRFSGSKSGNTASLTISGLQAEDEADYYCCSYAGSNTLVFGGGTKVTVL
B11: D134 (antibody, V domains shown)
VH: EVQLVESGGGVVQPGGSLRLSCAASGFTFDDYAMHWVRQAPGKGLEWVSLISGDGGSTYYADSVKGRFTISRDNSKNSLYLQMNSLRTEDTALYYCANGERGGNPRGGYYYYGMDVWGQGTTVTVSS
VL: EIVLTQSPATLSLSPGERATLSCRASQSVSSYLAWYQQKPGQAPRLLIYDASNRATGIPARFSGSGSGTDFTLTISSLEPEDFAVYYCQQRSNWPPYTFGQGTKLEIK
B12: C2713 (antibody, V domains shown)
VH: QVQLVQSGAEVKKPGASVKVSCKASGYTFTSYYMHWVRQAPGQGLEWMGIINPSGGSTSYAQKFQGRVTMTRDTSTSTVYMELRSLRSEDTAVYYCARDRSSNYGMDVWGQGTTVTVSS
VL: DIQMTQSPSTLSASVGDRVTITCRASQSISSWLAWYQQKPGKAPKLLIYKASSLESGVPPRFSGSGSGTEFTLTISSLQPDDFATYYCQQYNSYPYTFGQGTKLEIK
B13: D090 (antibody, V domains shown)
VH: EVQLVESGGGLVQPGRSLRLSCAASGFTFDDYAMHWVRQAPGKGLEWVSGISWNSGSIGYADSVKGRFTISRDNAKNSLYLQMNSLRAEDMALYYCAKGLPYSSSWYDAFDIWGQGTMVTVSS
VL: not shown
B14: D170 (antibody, V domains shown)
VH: QVQLVQSGAEVKKPGSSVKVSCKASGGTFSSYAISWVRQAPGQGLEWMGGIIPIFGTANYAQKFQGRVTITADESTSTAYMELSSLRSEDTAVYYCAREGGYCSGGSCSHYFDAFDIWGQGTMVTVSS
VL: QSALTQPASVSGSPGQSITISCTGTSSDVGSYNLVSWYQQHPGKAPKLMIYEGSKRPSGVSNRFSGSKSGNTASLTISGLQAEDEADYYCCSYAGSSTFWVFGGGTKLTVL
B15: D176 (antibody, V domains shown)
VH: QVQLVQSGAEVKKPGASVKVSCKASGYTFTSYDINWVRQATGQGLEWMGWMNPNSGNTGYAQKFQGRVTITRNTSISTAYMELSSLRSEDTAVYYCARGGSLMDVWGKGTTVTVSS
VL: QFVLTQPASVSGSPGQSITISCTGTSSDVGGYNYVSWYQQHPGKAPKLMIYDVSKRPSGVSNRFSGSKSGNTASLTISGLQAEDEADYYCSSYTSSSTFEVFGGGTKLTVL
B16: D119 (antibody, V domains shown)
VH: QLQLQESGPGLVKPSETLSLTCTVSGGSISSSSYYWGWIRQPPGKGLEWIGSIYYSGSTYYNPSLKSRVTISVDTSKNQFSLKLSSVTAADTAVYYCARLYSSGWYAFISWGQGTLVTVSS
VL: not shown
B17: D026 (antibody, V domains shown)
VH: EVQLVESGGGLVQPGRSLRLSCAASGFTFDDYAMHWVRQAPGKGLEWVSGISWNSGSIGYADSVKGRFTISRDNAKNSLYLQMNSLRAEDTALYYCAKDIHYDSSGLDYWGQGTLVTVSS
VL: not shown
B18: D110 (antibody, V domains shown)
VH: EVQLLESGGGLVQPGGSLRLSCTASGFTFSNYAMNWVRQAPGQGLEWVSAISGSGYSTYYVDSAKGRFTISRDNSKNTLYLQMNSLRADDTAVFYCTKSTYYDNSGYYSVFDYWGQGTLVTVSS
VL: NFMLTQPHSVSESPGETVTISCTRSSGNIASKFVQWFQQRPGSSPTTVIYENNQRPSGVPDRFSGSIDSSSNSASLTISGLKTEDEADYYCQSSDSTNVVFGGGTKLTVL
B19: D151 (antibody, V domains shown)
VH: QVQLQQWGAGLLKPSETLSLTCAVYGGSFSGYYWSWIRQPPGKGLEWIGEINHDGDTNYNPSLKSRVTLSVDTSKNQFSLSLSSVTAADTAVYYCARRKQQQSYYYYSIDVWGQGTTVTVSS
VL: DIQMTQSPSSLSASVGDRVTITCRATQGIRNDLGWYQQKPGKAPKRLIYAASSLQSGVPSRFSGSGSGTEFTLTISSLQPEDFATYYCLQHSSYPLTFGGGTKVEIK
B20: D156 (antibody, V domains shown)
VH: EVQLLESGGGLAQPGGSLRLSCAASGFTFSSYAMSWVRQAPGKGLEWVSAISGSGGTYYADFVKGRFTISRDDSKNTLYLQINSLRAEDTAIYYCAKDGYGSGNYKLRYLELWGRGTLVTVSS
VL: QSVLTQPASVSGSPGQSITISCTGTSSDVGGYNYVSWYQQHPGKAPKFMIYDVSKRPSGVSNRFSGSKSGNTASLTISGLQAEDEADYYCFSYAGSLVFGGGTKLTVL
B21: D153 (antibody, V domains shown)
VH: QVQLVQSGAEVKKPGASVKVSCKASGYTFTSYGISWVRQAPGQGLEWMGWISAYNGNTNYAQKLQGRVTMTTDTSTSTAYMELRSLRSDDTAVYYCARDFNDFWSGYWGYWGQGTLVTVSS
VL: QSALTQPPSASGSPGQSVTISCTGTSSDVGGYNYVSWYQQHPGKAPKLMIYEVSKRPSGVPDRFSGSKSGNTASLTVSGLQAEDEADYYCSSYAGSNNLVFGGGTKLTVL
B22: D179 (antibody, V domains shown)
VH: EVQLVESGGGLVQPGRSLRLSCAASGFTFDDYAMHWVRQAPGKGLEWVSGISWNSGSIGYADSVKGRFTISRDNAKNSLYLQMNSLRAEDTALYYCAKGQIVGATSSDYGMDVWGQGTTVTVSS
VL: DIQMTQSPSSVSASVGDRVTITCRASQGISSWLAWYQQKPGKAPKLLIYAASSLQSGVPSRFSGSGSGTDFTLTISSLQPEDFATYYCQQANSFPYTFGQGTKLEIK
B23: C2725 (antibody, V domains shown)
VH: EVQLVESGGGLVQPGRSLRLSCAASGFTFDDYAMHWVRQAPGKGLEWVSGISWNSGSIGYADSVKGRFTISRDNAKNSLYLQMNSLRAEDTALYYCAKLSRGHYYDFKADSGDFDYWGQGTLVTVSS
VL: QSALTQPASVSGSPGQSITISCTGTSSDVGSYNLVSWYQQHPGKAPKLMIYEGSKRPSGVSNRFSGSKSGNTASLTISGLQAEDEADYYCCSYAGSSWVFGGGTKLTVL
B24: D139 (antibody, V domains shown)
VH: QVQLVESGGGVVQPGRSLRLSCAASGFTFSSYGMHWVRQAPGKGLEWVAVISYDGSNKYYADSVKGRFTISRDNSKNTLYLQMNSLRAEDTAVYYCAKMGGGVYCSGGSCYSSYFDYWGQGTLVTVSS
VL: AIQLTQSPSSLSASVGDRVTITCRASQGISSALAWYQQKPGKAPKLLIYDASSLESGVPSRFSGSGSGTDFTLTISSLQPEDFATYYCQQFNNYLPLTFGGGTKVEIK
B25: D135 (antibody, V domains shown)
VH: EVQLVESGGGLIQPGGSLRLSCAASGFTVSSNYMTWVRQAPGKGLEWVSLIYSGGSTYYTDSVKGRFTISRDNSKNTLYLQMNSLRAEDTAVYYCARLLITMVRGVISSGLDYWGQGTLVTVSS
VL: EIVLTQSPGTLSLSPGERATLSCRASQSVSSSYLAWYQQRPGQPPRLLIYGASSRATGIPDRFSDSGSGTDFTLTISRLEPEDFAVYYCQQYGSSPPITFGQGTRLDIK
B26: D130 (antibody, V domains shown)
VH: EVQLVESGGGLVQPGRSLRLSCAASGFTFDDYAMHWVRQAPGKGLEWVSGISWNSGSIGYADSVKGRFTISRDNAKNSLYLQMNSLRAEDTALYYCAKSGLYGDYDAAFDYWGQGTLVTVSS
VL: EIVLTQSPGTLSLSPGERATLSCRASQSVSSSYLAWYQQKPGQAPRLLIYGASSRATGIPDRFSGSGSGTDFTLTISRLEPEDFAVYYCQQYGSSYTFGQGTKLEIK

target: SARS-CoV-2 spike RBD (WT) (Severe acute respiratory syndrome …, UniProt P0DTC2); assay: ELISA; set-up: unit not given here

For B1, which binding score is on record?
Its binding score is greater than 10000.

B2 was tested. Which binding score did it give?
Its binding score is greater than 10000.

How did the binding score turn out when B3 was run?
Its binding score is 1200.

For B4, which binding score is on record?
Its binding score is greater than 10000.

Which binding score does the source give for B5 here?
The binding score was greater than 10000.

B6 was tested. Which binding score did it give?
Its binding score is greater than 10000.

Which binding score does the source give for B7 here?
Its binding score is greater than 10000.

How did the binding score turn out when B8 was run?
Its binding score is 8900.

How did the binding score turn out when B9 was run?
The binding score was greater than 10000.

With B10 as the binder, how does the binding score read?
The binding score was greater than 10000.

How did the binding score turn out when B11 was run?
The binding score was greater than 10000.

How did the binding score turn out when B12 was run?
Its binding score is 4560.

B13 was tested. Which binding score did it give?
The binding score was greater than 10000.

With B14 as the binder, how does the binding score read?
The binding score was 3050.

For B15, which binding score is on record?
Its binding score is 1430.

Which binding score does the source give for B16 here?
Its binding score is greater than 10000.

Which binding score does the source give for B17 here?
The binding score was greater than 10000.

Which binding score does the source give for B18 here?
Its binding score is 2330.

B19 was tested. Which binding score did it give?
Its binding score is greater than 10000.

How did the binding score turn out when B20 was run?
The binding score was greater than 10000.

How did the binding score turn out when B21 was run?
The binding score was greater than 10000.

With B22 as the binder, how does the binding score read?
Its binding score is 8900.

For B23, which binding score is on record?
Its binding score is 230.

Which binding score does the source give for B24 here?
Its binding score is 311.

Which binding score does the source give for B25 here?
Its binding score is 1110.

For B26, which binding score is on record?
Its binding score is greater than 10000.

Source: paper PMC9876794 (2022)
